From US10001489B2, “Method for constructing a novel affinity peptide library for binding immunoglobulin G based on a protein affinity model of protein A” (TIANJIN UNIVERSITY, priority 2012, dated 2018) come the findings set out here.

Where no end group is shown, it is not given here.

Assay [1] has as its system hIgG. Description: Affinity chromatography, pulse injection of hIgG on peptide-coupled Thiopropyl Sepharose 6B column. The format is binding, human. As to the method: (§1) Peptide powders purchased from GL Biochem Ltd. (Shanghai, China) had been purified by high performance liquid chromatography (HPLC) with a purity of 96.36%. 1 g of resin (Thiopropyl Sepharose 6B, purchased from GE Healthcare) was weighed and washed for 15 min with 200 mL of deionized water in a buchner funnel. After being filtered and getting rid of water, two aliquots of 1.0 g of drained gel were transferred into two 25-mL Erlenmeyer flasks, respectively. Then 6 mL and 10.7 mL of linking buffer (0.1 M Tris-HCl, pH 7.5, 0.5 M NaCl and 1 mM EDTA) were added to the two flasks respectively, to fully pre-equilibrate the gels. […] The peptides were fully mixed with the gels in corresponding flasks and initial peptide concentrations of 1.0 mg/mL were obtained. The mixtures were reacting in a shaking bath at a rate of 180 rpm, at 25° C. for 2 h. 500 μL of supernatant was acquired each hour for analyzing the residue peptide content in the reaction solution with reversed-phase high pressure liquid chromatography (RP-HPLC). […] After the reaction was finished, the reaction system was centrifuged and the supernatant was removed, then the gel was washed repeatedly with washing buffer (10 mM PBS, pH 7.2, 150 mM NaCl) in a buchner funnel to get rid of the free peptides. Finally, equilibriation buffer (20 mmol/L citrate buffers, pH 5.0-5.5; or 20 mmol/L PBS buffers, pH 5.5-6.0) was used to suspend the gel to 1 mL, and after being degassed, the gel was slowly loaded into the glass column (Tricorn chromatogram column, Tricorn 5×5, GE healthcare). The column was first washed with equilibration buffer at 0.1 mL/min, and then the speed of the buffer was increased to 0.2 mL/min when the column pressure was stable, and the speed of the buffer was increased according to above operation till it reached 1.0 mL/min.
(1) Equilibration: the affinity column was washed with equilibration buffer until a stable baseline was reached. The flow rate of buffer was 0.5 mL/min, keep washing another five column volumes (CVs) before sample injection. […]

In assay [2] the target is bovine serum albumin (BSA) (Bos taurus, UniProt P02769). Description: Affinity chromatography, BSA on peptide-coupled Thiopropyl Sepharose 6B column. The format is binding. As to the method:
as §1
(1) Equilibration: the affinity column was washed with equilibration buffer until a stable baseline was reached. The flow rate of buffer was 0.5 mL/min, keep washing another five column volumes (CVs) before sample injection.
(2) Sample injection: unless specifically stated, all protein samples were prepared by equilibration buffer. After sample injection, the column was equilibrated with 5-10 CVs of equilibration buffer (20 mmol/L citrate buffer, pH≤5.5; or 20 mmol/L PBS buffer, pH≥5.5). The sample loading amount was 100 μL, protein sample concentration was 1.0 mg/mL, and the flow rate was 0.5 mL/min.
(3) Elution: the column was washed with 5-10 CVs of elution buffer, and the flow rate was 0.8 mL/min.
(4) Storage: first 10 CVs of deionized water was used to wash the column, followed by another 10 CVs of 20% ethanol solution. Then the affinity gel was stored in this solution. All buffers should be filtered through a filter and degassed before use.

For assay [3], the target named is bovine serum albumin (bovine) (UniProt P02769). The experiment in a line: affinity chromatography, peptide immobilized on Thiopropyl Sepharose 6B, pH 5.5.
Assay [4] has the same target. Description: affinity chromatography, peptide immobilized on Thiopropyl Sepharose 6B, pH 6.0.

Chain of bovine serum albumin (BSA) (P02769 25-607): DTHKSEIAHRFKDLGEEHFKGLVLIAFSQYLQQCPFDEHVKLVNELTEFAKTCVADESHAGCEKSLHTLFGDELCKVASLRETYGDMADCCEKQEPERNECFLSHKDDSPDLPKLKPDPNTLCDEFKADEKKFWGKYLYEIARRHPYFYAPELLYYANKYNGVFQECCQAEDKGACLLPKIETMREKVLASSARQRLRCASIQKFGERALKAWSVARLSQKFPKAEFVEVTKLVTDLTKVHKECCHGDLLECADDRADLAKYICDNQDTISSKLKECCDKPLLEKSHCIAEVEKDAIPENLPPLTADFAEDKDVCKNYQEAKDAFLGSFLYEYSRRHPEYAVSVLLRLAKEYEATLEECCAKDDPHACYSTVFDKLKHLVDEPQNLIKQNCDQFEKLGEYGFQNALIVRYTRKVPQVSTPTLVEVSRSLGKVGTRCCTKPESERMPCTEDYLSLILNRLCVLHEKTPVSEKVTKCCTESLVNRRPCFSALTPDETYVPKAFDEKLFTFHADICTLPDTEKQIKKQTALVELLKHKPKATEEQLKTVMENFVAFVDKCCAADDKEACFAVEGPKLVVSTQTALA
Chain of bovine serum albumin (bovine) (P02769 25-607 limits assumed): as the sequence (P02769 25-607) above

As to “FYCHWALE (not fully specified (residue 3)) [synthesized and immobilized on Thiopropyl Sepharose 6B]”, the “binding of hIgG by immobilised peptide ligand” value in assay [1] (pH 5.5-7.0) is “could bind a lot of hIgGs”; in assay [1] (pH 6.0, 20 mM PBS), “could bind almost all hIgGs”. In addition, the results for the “binding of BSA by immobilised peptide ligand” value in assay [2] (pH 5.5) and in assay [2] (pH 6.5) were “about half” and “trace”, respectively. Moreover, in assay [2] (pH 6.0), the “binding of BSA by immobilised peptide ligand (fraction of BSA bound)” value is recorded as “⅓”.
FYCHWALE peptide ligand: the values for the fraction of loaded protein bound (fraction of BSA) in assay [3] and in assay [4] were 0.5 and 0.333, respectively.
Turning to “FYWHCLDE (not fully specified (residue 5)) [synthesized and immobilized on Thiopropyl Sepharose 6B]”, the “binding of hIgG by immobilised peptide ligand” value in assay [1] (pH 5.0-6.0) is reported as “strong binding”. In assay [2] (pH 5.5), the “binding of BSA by immobilised peptide ligand” value is given as “large binding”.
